Target: CD44 variant carrying the epitope coded by exon v6 on human Langerhans cells and dendritic cells (human) (UniProt P16070)

- binding of cultivated LCs and cytokine-activated DCs to paracortical T-cell zones of lymph node frozen sections: < 66 % inhibition
Substance: VFF18 (antibody)

From US20020160010A1
